Source: patent US12077763B2, “RNA-based control of powdery mildew” (Greenlight Biosciences, Inc., priority 2021, dated 2024)

Tested on: E. necator
Experiment: Leaf disc assay, dry inoculum (settling tower), decrease in disease severity / hyphal growth (Example 2)
Conditions: decrease in disease severity (hyphal growth) relative to untreated control, value ± SE; for % decrease =/− SE TP1: time point 1 (untreated control hyphal growth ≥50%); for % decrease =/− SE TP2: time point 2

| Molecule | % decrease =/− SE TP1 [%] | % decrease =/− SE TP2 [%] |
| --- | --- | --- |
| GS1856: dsRNA trigger SEQ ID NO 214; gene target Zinc finger and SCAN domain-containing protein 20 (nucleic acid) GACCATTGTGGTCTTTCGACAAAATGATTTCAAACAGCCCTCGTGTGCACATTTGTATGGTCTTTTTCCTGTATGAATACGACGATGACGAGCCAGACTAGATGAATCAGAGAATCGTTTCCCACAACCAAGATGCTGGCATTGATGTGGCTTTTCGCCAGTGTGTGTTCGAATGTGCACAGTTAAGGCACTTCTTTGAATGAAACTTTTTCCACATCCAGGCTGCATGCATGAATATGGCCGTTCGTTGGTATGTATTCGATAGTGGCGTTGAAGGTCAGACTTCCTGTTGAAACTCTTGTGACATGTCTGCCAATCACACTGAAATGGTCTCGCATTAGGTTCGTTTTCAACGAGCTCCATTACATCCATAGTGAACCGACAAGTAGTGTCGAATGTATGCAATGTCGGAGAAGTTAAGGGTTGGACAAGAGGTACCGCAGCAAAAGCTGCAGGTGTGGTGATTAGGTGGGGATGGGTGTCGAATATATAAGATTGCGATTCTCTATTTAAAGAAAAAAGAAATATAAGCAAAATAAAATATTTCTTTTGA | 1 ± 7 | 6 ± 8 |
| GS1850: dsRNA trigger SEQ ID NO 198; gene target Ubiquitin-conjugating enzyme E2-34 kDa (nucleic acid) TCGTCATCCTCGTCTTGTTCAAAATCATAGTTATCATCGTCTGAGCTCTCGCTGGTACCGAACTCATCCTGATCATCACTCTCGTTCCAGAAATCATCGTCATCATTAATTTGCGGAGGAGGCGCCTCAATTAATGTTTTTGGCATCACAAAACCCTCCGGTATATCTCTCATAGAAATTCTTACTGTCTCCAAAGCCCGCTGTTTGTAAGCCTCCAGGTTATCCCGATACATAACGCTGGCATCAACATTTGCAGGGGAGGTAATCTCAGGGTCATCTAGTAAGAGAAGAATAGAGCGGAGAACACTTTCAACACTCTGAATTGATGACCAGCGCTCACAAGCAAGCTCTCCAGATTGTTCATCATCTCCAGCAGCGTGTAGTATTGAGATGCAAACCCTGCCATCAGGATATATATTTGGATGGTAAATAGGTTGCAAGAATTTGAAGGTCGGAGGAGCATAAGGATATTTATCAGTAAAACCCATTTCAGCCTTAAAATAAGCCCCATCGAAAGCACTTTCTGGGTTGACTACTATTAGAGCGATTAACCACTTGAA | 13 ± 6 | 0 ± 6 |
| GS1859: dsRNA trigger SEQ ID NO 207; gene target Citrate/oxoglutarate carrier protein (nucleic acid) AGGATCTTCTTTTGCTCTGCATTTCAACTCGAATAACCTCAATTGGTTGATTCCACGCACTCAACCCTCCCCCAAGGGCACTAGCGAGAATTCGTTCCCAAGCACTTAATGGACCGCCATTTTCTTTTCCTGAAACCTTTCGGATTCCCTGTTCTGCCAAACGACTTAATCCAAATCTGGATCCCCAATTCGTCATTTGTCGAATGGCAACAGCATTCACACCTTTATTAATACCTCTGATCCCATCTTTACGGTATATATCCATAAATGTTGAGAAAGTTCCTGGGGGCTTTACACCAGTGGATGCTAATTTGGATTTCGTAATCTCCACAGTTTTCATGCATGTACAAAAGCCCATAGTGGCATATGCTTGAGCCATACCCCCGACAACGCCTCCTGTGATGCCGGCTGTGAAGATGCCGGCTCCAAAACTTCGAGCATAGAATTCTGCTTCTGAAGCGACAAATAGAAGAACTGCACCTTTTGATGAAGCTTCAATCCAAGCCCATGGGATCAAGCCCTGATAAAAACCCAAAACA | 32 ± 5 | 26 ± 7 |
| GS1857: dsRNA trigger SEQ ID NO 129; gene target Transcriptional adapter 2 (nucleic acid) CTTGCTTGAAATTCTTCTCGTGGAATTTCTTCAAGAAGCTGAGTATCCTTGAGACTAGCTCTAACAGGTAGGGGAAACTTTGGACTATCCAGATAAACTTTCTGATAATGCGCCTTAACTTCGTCCTTGTCTCGATAACCTCCAATATGGTCTGCTATATCTGCCCATGATCCAAAGCCATATATTTCGGCTCCCTCCAAAAGAAGTAATTCTTCATCAGCACCCCAGTTTCTGTCATATATGGGAACTGAATTTTGCTCTATTACTCGGTATGGATGGGTTCCTGGGTTGTGGTTGTGTGAAGCTTCGCCATTTGAGAAGCATAGCACACAAAGATCATAATCATGACAGTGAGGGTCAGCACACCTAATTCGAACTGTCGAGGTAATGTCTGCTGAGCATACATCGCATACATACTTAACACCTCCCTCGGCACCTCGGGTCGCAGTCTTCTTCCTGATTTGGCCCATTGCTAAAACTCATGGTCAGTACTAGCAACAGAGCTCCCCTTGGTAGCACGAAGTTAAAACTGCAAATCCTTAAAATTTT | 28 ± 5 | 14 ± 7 |
| GS1848: dsRNA trigger SEQ ID NO 134; gene target ADP-ribosylation factor-like protein 3 (nucleic acid) CACCGCCCATAGCTCCTTCAAAAACGTGTTTGACAAATCCCTCTTTGATTCGTACCACTTCAACGCAATCTTCACGATCTTGCTTATTTGCTAATATCAACAATGGTACACCGTCAATTTCTCCATTGACCAAGACTTCCTCCAGAGCCAATCGACACTCTTCAAGGCGACCCGACTCATCATGCTCCAAATCTCCATCACCAATCTCAGTGCTATCAATGAGGAAAATAATGGCGTGGCATGATCGATAGTAAGATTTCCATAGTTTGCGAAGAGATTCCTGACCACCTACATCCCAAAGCTTAAGGTACATGTCAGGCAGCGTAATAGTGCTCACATTTTGTCCGACTGTAGGTCCCGTATTTATTTTGGGTGCAGGCGCATGAGGCAGGAACAGGAATTTAACTTGTTCGTGAAAAGTTGTCTTGCCGGCGTTATCAAGTCCCAGCAAAAGAACCGAGTATTCTTCTTTGCGCGTTGCGTAGTGGTAGAGACCCTTAACCAAATGATACATGTAGGTTTAGATCTACATAAATGGAGAAAGAAATCTTAATTAGAATGG | 18 ± 8 | 7 ± 8 |
| GS1855: dsRNA trigger SEQ ID NO 212; gene target Golgi apyrase (nucleic acid) TAACACCCGCAGTTGCCATCAGAAAGAAGGGAGTATCTTTAACTTGATTCTCAGGTACAATACTCAATGCATGATCTAGTAAGCTTTGAAGATGTTCAGGACCAATATCTGTTATGCGATCGGCAAAGGAAGAGACGCCGGGTTTGATTTTTTTTGAATATCCAGGTTTAGTGTGTAACTGAGGTAGTTGGTTCAATTGAATCTCATTTTTTGCATCGTAACGAGCTCGAGATGTATTGAGCCACCGGTAGACGTGGACTCGAGTCCCTGACGAGCCCGCGTCTAAGATAACCCCCCATCGCCATTTACCCATAAGTAGCCTATCGTTACGGTTTGGCGATGCCGGTCTAGGATATGTGCTTCAATATCAAAAATAATCCGTGAAGCGTTACAAAAACATGAGTCAATTATACGGAATTTGAAACGAGTGTGAAAGGAAGTCGGCAGACTCAAAAATAAAAAAGAAAGATAATAATTCGAATTTGAATGAGAATGAGTAGTGGTCGGATAAGATGTTTAATGCTAAGTGCTAAGATAACTGACTAAGACTTGAT | 26 ± 4 | 10 ± 6 |
| GS1852: dsRNA trigger SEQ ID NO 202; gene target PA-phosphatase related-family protein DDB_G0275547 (nucleic acid) TTCTCTTAGGGACGGTTGGCATCATTATTAATTTTGCAGAACCAATTCCATCTCGATCTTTTCCGATTTATTCTCAAAATGGAGATATTGTTTATCCTCAATTTGCATATCCTCTTCGCAAGAATATCATTCCAATTTGGGTAGCAATTTTGTTGGCTTCACTTATTCCTTTGCTCATCATTTTCCTTACACAATTTCGTATTCGCTCGTTTTGGGATGCAAACAACGCGATTACAGGGCTATTATACTCCCTTATTATCGCCGGAGTGTTTCAAGTCTTCTTAAAGTGGTTAATTGGAGGGCTGAGACCTCATTTTCTAACCGTCTGTGAGCCAATAATTCCAACACGTGCTCCAATAAAGGCTAGATATGGGCCTAGAATAATAATGTACGACAGAAATGTCTGCACTGGCGACAAAAGGCAGATCAATAATTCTCTTGAATCATTCCCTTCAAGCCAATCGACTGTAGCATTTTCTGGTTTCGTTTATTTGGCTATATACCTGAATGCAAAACTTAAAATTTGGTCTAATTACCATTCTGCCATGTGGAAGAT | 22 ± 4 | – |
| GS1849: dsRNA trigger SEQ ID NO 143; gene target Chitin synthase 8 (nucleic acid) TTGAGAAGCAGCCAACCATGTATTAACAACTAAGCTAGTGCTTGCATCAAGTTTATATGATTGCGTAGACGTGTAAGCAGTATGGATTGAGTTTAGGAGAGTAGTCGATGAGACTTGCGCTGGAGGTTGAGAAGTAGAATTGTTATTTCGAACACCTCCATACGCTGAAGAGGTAGTTGAATAGATAGACATCCGGTGAGTTCCAGTCATTTTATGAAGAGTGATCGAGTTTTTAGACCTTTCCACGTATGGATATTTAAGGTATGTAAATGAGTCAATTCAAAGTCACAAGATTCTCGATCAGTCGATTGATTGGCTTATTGACAATATTCTTTAGCCGAAATCTTAGACAATGGCTTGACAGAATTAATGTCTGGTCTTCGAAGTATCCAGTTGGTGTGTAGCAGATAACTTCGGTATAGTTGTAGAAATGGAAAACAAACCGCAAAAGACAGTCTTGTATCGACCGTGAGGCCGACAGTAGGAGAAATTCAATGCTATTGAGAAATTGAACAACCAAAAAGCGAAAGTAGGGTAACAAGTTTCGACTCACAGACCTA | – | 5 ± 8 |
| GS1853: dsRNA trigger SEQ ID NO 204; gene target Uncharacterized WD repeat-containing protein C17D11.16 (nucleic acid) CGGACTTCTTGGTCAGGCGCAAAAGAAGTTGAAAATACCTTTCCAACTTCCAAATCTCTGGACACTATCATTGAGGGGCCCGATGGCTGAATATTCCACAGTTTTACGAGTTTATCAGAAGACCCTGTGGCCATAAACCCGGGAATGATAGGATTAATATCAAAAGCACAAACTGATTTGTCATGTGCTTGCAATAACCAAACTGGCTTACTAGAACTGGGAGTAGATGGTGCCATTCGTATATCGTGATAATGGACCATACCACCTTCTGTCGTTACGTAAAAGAAATTTGGGTTGTGTGCATCCCATTTGACAGCTTCTACATCACTTTCTACACCCCAAATCGGCACTTTGGATTCTGGTGCTCTCATGTCGGCCGCTACGACACTCCGATCATAACTTCCACTAAGTAAGACAGTGGAGTCAACAGGATGCCATTGTATTGAGCAAACTTTATCTGAATGATTACTATATGATTTAGCACATTTATTAGTATTAAGGTCCCATAGTTTGACAGTCTTGTCGGCGGAAGAAGAGGCAAGTAAATTTTGGTGTT | 14 ± 6 | 0 ± 5 |
